In patent EP4799649A1 (RemeGen Co., Ltd., dated 2026) one finds EC50 data, which are given here for two molecules.

One assay deals with T1, Blys homotrimer (UniProt Q9Y275 134-285).
T1 construct: also called BAFF; B lymphocyte stimulator
Nature of the assay: ELISA on Blys homotrimer.

Another assay has as its target T2, APRIL homotrimer (UniProt O75888 105-250, limits assumed).
T2 construct: also called a proliferation-inducing ligand
T2 sequence (looked up): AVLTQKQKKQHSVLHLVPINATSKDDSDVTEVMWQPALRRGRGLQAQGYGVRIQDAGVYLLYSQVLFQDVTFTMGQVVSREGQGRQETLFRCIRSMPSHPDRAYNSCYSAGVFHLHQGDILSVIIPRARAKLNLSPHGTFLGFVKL
Nature of the assay: ELISA on APRIL homotrimer.

T1 sequence (Q9Y275 134-285 limits assumed): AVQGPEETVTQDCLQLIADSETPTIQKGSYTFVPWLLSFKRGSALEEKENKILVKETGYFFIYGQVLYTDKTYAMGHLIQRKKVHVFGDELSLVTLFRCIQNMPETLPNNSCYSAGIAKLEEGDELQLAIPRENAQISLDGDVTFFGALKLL

B1: telitacicept (Fc fusion)
chain: SRVDQEERFPQGLWTGVAMRSCPEEQYWDPLLGTCMSCKTICNHQSQRTCAAFCRSLSCRKEQGKFYDHLLRDCISCASICGQHPKQCAYFCENKLRSPVNLPPELDKTHTCPPCPAPEAEGAPSVFLFPPKPKDTLMISRTPEVTCVVVDVSHEDPEVKFNWYVDGVEVHNAKTKPREEQYNSTYRVVSVLTVLHQDWLNGKEYKCKVSNKALPSSIEKTISKAKGQPREPQVYTLPPSRDELTKNQVSLTCLVKGFYPSDIAVEWESNGQPENNYKTTPPVLDSDGSFFLYSKLTVDKSRWQQGNVFSCSVMHEALHNHYTQKSLSLSPGK
notes: TACI-Fc fusion protein (truncated TACI plus optimized human IgG1 Fc); also called RC18; Tai'ai
A word on the EC50: it is the concentration at which the effect is half-maximal. High values mean a need for much substance, low ones an effect from little substance. As for B1, the EC50 in the assay with Blys homotrimer worked out at 0.219 nM; with APRIL homotrimer it was 1.1 nM.

B2: povetacicept (Fc fusion)
chain: SLSCRKEQGEYYDHLLRDCISCASICGQHPKQCADFCENKLRSGSGGGGSEPKSSDKTHTCPPCPAPEAEGAPSVFLFPPKPKDTLMISRTPEVTCVVVDVSHEDPEVKFNWYVDGVEVHNAKTKPREEQYNSTYRVVSVLTVLHQDWLNGKEYKCKVSNKALPAPIEKTISKAKGQPREPQVYTLPPSRDELTKNQVSLTCLVKGFYPSDIAVEWESNGQPENNYKTTPPVLDSDGSFFLYSKLTVDKSRWQQGNVFSCSVMHEALHNHYTQKSLSLSPG
notes: Fc fusion protein of an engineered TACI domain
In the case of B2, the EC50 is 0.057 nM with Blys homotrimer and 0.128 nM with APRIL homotrimer.
